In the Human Domainome abundance scans (Beltran et al. 2025):
± gives the uncertainty stated by the source.

B1: F-BAR and double SH3 domains protein 1, residues 467 to 528; numbered along this chain, Q86WN1 (parent)
chain: RALPCPAHVVFRYQAGREDELTITEGEWLEVIEEGDADEWVKARNQHGEVGFVPERYLNFPD

Variants of: B1
Assay: abundance fitness (aPCA) (normalised: wild type 0, dead -1); higher = more abundant; growth selection in yeast, the domain comes from the species named
Settings: Homo sapiens

Variant	abundance fitness
T22S	0.069 ± 0.051
T22V	-0.898 ± 0.1
T22A	-0.2 ± 0.054
T22N	0.09 ± 0.13
G48D	-0.217 ± 0.067
G48P	-0.623 ± 0.1
G48V	-0.741 ± 0.092
G48Y	-0.494 ± 0.15
G48R	-0.376 ± 0.073
G48E	-0.169 ± 0.073
K42A	-0.511 ± 0.086
K42C	-0.25 ± 0.11
K42P	-0.974 ± 0.15
K42G	-0.775 ± 0.14
K42Q	-0.129 ± 0.074
E55G	-0.132 ± 0.055
E55H	-0.133 ± 0.1
E55W	-0.151 ± 0.056
E55Y	-0.196 ± 0.081
E55F	-0.165 ± 0.058
A15K	-0.125 ± 0.092
A15Y	-0.875 ± 0.25
A15G	-0.088 ± 0.05
A15R	-0.178 ± 0.043

Variant	abundance fitness
A15Q	-0.27 ± 0.062
A15P	-0.374 ± 0.078
L21M	-0.198 ± 0.071
L21N	-0.925 ± 0.26
L21K	-0.989 ± 0.35
L21C	-0.951 ± 0.31
L21W	-0.648 ± 0.11
L21Y	-1 ± 0.23
L21P	-0.947 ± 0.18
L21T	-1.21 ± 0.47
L21R	-0.99 ± 0.13
L21Q	-0.927 ± 0.21
L21S	-0.517 ± 0.093
Q14G	-0.377 ± 0.07
Q14S	-0.106 ± 0.053
Q14T	-0.204 ± 0.069
Q14W	-0.481 ± 0.11
Q14A	-0.153 ± 0.063
Q14C	-0.363 ± 0.081
Q14P	-0.636 ± 0.11
E39V	-0.184 ± 0.054
E39I	-0.1 ± 0.096
E39N	0.227 ± 0.092
E39L	-0.146 ± 0.043

Variant	abundance fitness
E39P	-0.207 ± 0.067
E39A	-0.016 ± 0.052
H47D	-0.006 ± 0.081
H47I	-0.176 ± 0.14
H47G	0.051 ± 0.048
H47Q	-0.026 ± 0.061
H47Y	-0.215 ± 0.11
H47F	-0.246 ± 0.12
E33T	-0.305 ± 0.071
E33K	-0.344 ± 0.15
E33C	-0.05 ± 0.09
V53T	-0.868 ± 0.13
V53H	-0.675 ± 0.24
V53D	-0.745 ± 0.12
V53Y	-0.466 ± 0.084
V53P	-0.922 ± 0.18
V50Q	-0.093 ± 0.061
V50S	-0.148 ± 0.068
V50R	-0.607 ± 0.071
V50C	-0.191 ± 0.17
V50K	-0.187 ± 0.075
V50A	-0.211 ± 0.065
V50F	-0.29 ± 0.09
Y57G	-0.44 ± 0.065

Variant	abundance fitness
Y57H	0.208 ± 0.086
Y57S	0.123 ± 0.058
Y57A	0.102 ± 0.048
W28I	0.026 ± 0.086
W28R	0.039 ± 0.041
W28T	-0.053 ± 0.081
W28S	-0.014 ± 0.054
H8W	-0.041 ± 0.12
H8S	-0.479 ± 0.07
H8A	-0.497 ± 0.073
N59L	-0.159 ± 0.035
N59W	-0.242 ± 0.053
N59K	-0.005 ± 0.071
N59H	0.003 ± 0.086
E30L	-0.277 ± 0.055
E30S	-0.125 ± 0.065
E30R	-0.474 ± 0.085
E30D	-0.177 ± 0.093
E30N	-0.208 ± 0.087
Y13S	-0.356 ± 0.059
Y13R	-0.226 ± 0.061
Y13K	-0.16 ± 0.094
Y13W	-0.167 ± 0.12
Y13C	-0.486 ± 0.11

Variant	abundance fitness
Y13P	-0.711 ± 0.13
P61W	-0.174 ± 0.058
P61G	0.042 ± 0.067
P61E	-0.111 ± 0.1
P61V	0.001 ± 0.073
P61A	-0.03 ± 0.065
P61Y	-0.303 ± 0.17
P61H	-0.249 ± 0.086
P61D	-0.007 ± 0.099
P61I	0.091 ± 0.12
P61S	0.091 ± 0.052
V41D	-0.815 ± 0.25
V41H	-0.929 ± 0.23
V41A	-0.495 ± 0.081
V41M	-0.199 ± 0.069
P4I	-0.381 ± 0.11
P4T	-0.136 ± 0.093
P4W	-0.664 ± 0.11
P4R	-0.505 ± 0.076
P4K	-0.359 ± 0.15
P4Q	-0.553 ± 0.13
P4M	-0.247 ± 0.11
P4H	-0.472 ± 0.13
E49I	0.1 ± 0.095

Variant	abundance fitness
E49L	-0.13 ± 0.047
E49T	-0.075 ± 0.07
E49K	-0.026 ± 0.096
E49C	-0.029 ± 0.095
E49H	-0.015 ± 0.12
C5Y	-0.215 ± 0.077
C5F	-0.294 ± 0.12
C5I	-0.419 ± 0.1
C5H	-0.145 ± 0.42
C5Q	-0.171 ± 0.09
C5R	-0.431 ± 0.062
I23W	-0.572 ± 0.1
I23R	-0.751 ± 0.069
I23V	-0.014 ± 0.045
I23E	-0.833 ± 0.13
I23A	-0.705 ± 0.085
I23K	-0.718 ± 0.097
I23M	-0.269 ± 0.045
D19Q	0.034 ± 0.079
D19Y	-0.04 ± 0.076
D19M	-0.12 ± 0.061
D19H	-0.013 ± 0.11
D19N	-0.028 ± 0.084
Q46L	-0.056 ± 0.045

Variant	abundance fitness
Q46P	-0.334 ± 0.074
Q46T	-0.01 ± 0.062
Q46S	-0.04 ± 0.061
Q46C	-0.018 ± 0.099
Q46W	-0.228 ± 0.093
Q46A	0.036 ± 0.057
Q46G	-0.082 ± 0.061
D62Y	-0.17 ± 0.079
D62A	0.012 ± 0.075
D62K	-0.148 ± 0.15
D62I	-0.435 ± 0.12
E27P	-0.811 ± 0.14
E27Y	-0.825 ± 0.29
E27R	-0.762 ± 0.099
E27S	-1.01 ± 0.14
E27I	-0.468 ± 0.22
L29I	-0.004 ± 0.14
L29W	-1.01 ± 0.21
L29T	-0.782 ± 0.15
G35T	0.063 ± 0.088
G35V	-0.005 ± 0.061
G35M	-0.202 ± 0.08
G35C	-0.179 ± 0.15
G35P	-0.371 ± 0.079

Variant	abundance fitness
G35N	-0.276 ± 0.11
E20F	-0.284 ± 0.078
E20C	-0.103 ± 0.079
E20M	-0.475 ± 0.083
E20K	-0.809 ± 0.17
E20L	-0.769 ± 0.072
E20T	-0.286 ± 0.097
E20G	-0.179 ± 0.062
N45V	-0.949 ± 0.16
N45C	-0.994 ± 0.28
N45M	-0.891 ± 0.24
N45F	-0.869 ± 0.17
N45A	-0.567 ± 0.1
N45G	-0.576 ± 0.098
N45Q	-0.884 ± 0.22
N45L	-0.737 ± 0.086
R17C	0.064 ± 0.067
R17L	-0.375 ± 0.053
R17N	0.099 ± 0.13
R17I	-0.557 ± 0.14
G16K	0.077 ± 0.074
G16M	0.026 ± 0.071
G16W	-0.245 ± 0.067
G16N	0.113 ± 0.13

Variant	abundance fitness
G16E	0.165 ± 0.12
G16C	0.035 ± 0.087
G16D	-0.233 ± 0.12
A37W	-0.044 ± 0.064
A37P	-0.107 ± 0.074
A37I	-0.026 ± 0.099
A37K	0.14 ± 0.06
A37V	0.052 ± 0.052
V31W	-0.837 ± 0.11
V31N	-0.947 ± 0.23
V31G	-0.888 ± 0.087
V31I	-0.028 ± 0.067
V31Q	-1.03 ± 0.34
V31A	-0.465 ± 0.075
V31S	-0.683 ± 0.091
D38C	-0.047 ± 0.068
D38G	0.023 ± 0.055
D38E	0.101 ± 0.065
D38K	-0.08 ± 0.091
D38R	0.053 ± 0.054
D38M	-0.17 ± 0.068
D38H	-0.002 ± 0.19
V9A	0.002 ± 0.058
V9W	-0.902 ± 0.13

Variant	abundance fitness
V9H	-0.85 ± 0.22
V9E	-0.411 ± 0.12
E34V	-0.004 ± 0.062
E34F	0.127 ± 0.095
E34P	-0.112 ± 0.072
E34Y	-0.053 ± 0.14
E34N	-0.016 ± 0.2
E18A	-0.228 ± 0.073
E18F	-0.28 ± 0.12
E18N	-0.086 ± 0.091
D36E	0.032 ± 0.072
D36T	-0.042 ± 0.065
D36Y	-0.171 ± 0.12
P54Q	-0.117 ± 0.063
P54M	-0.009 ± 0.053
P54E	-0.509 ± 0.11
P54W	-0.117 ± 0.063
P54C	-0.001 ± 0.071
P54D	-0.539 ± 0.16
P54R	0.012 ± 0.042
P54L	-0.016 ± 0.04
R44V	-0.165 ± 0.042
R44Q	-0.23 ± 0.073
R44P	-0.673 ± 0.099

Variant	abundance fitness
R44E	-0.268 ± 0.071
R44I	-0.036 ± 0.09
R1D	-0.298 ± 0.19
R1K	-0.339 ± 0.094
R1L	-0.47 ± 0.1
R1E	-0.431 ± 0.1
R1G	-0.238 ± 0.057
R1I	-0.052 ± 0.11
R1C	-0.544 ± 0.091
R1S	-0.153 ± 0.058
A2Y	0.389 ± 0.14
A2D	0.153 ± 0.095
A2W	-0.146 ± 0.061
A2R	0.053 ± 0.039
A2C	0.031 ± 0.061
A2H	-0.256 ± 0.13
A2Q	0.007 ± 0.097
E25G	-0.281 ± 0.1
E25T	0.038 ± 0.095
E25Q	-0.266 ± 0.24
E25C	-0.325 ± 0.17
E25P	-0.069 ± 0.12
E25H	-0.176 ± 0.17
E25K	0.139 ± 0.074

Variant	abundance fitness
I32V	-0.07 ± 0.041
I32K	-0.948 ± 0.24
I32A	-0.84 ± 0.1
I32T	-0.256 ± 0.067
A7C	-0.441 ± 0.21
A7P	-0.788 ± 0.12
A7K	-1.05 ± 0.18
F60A	-0.535 ± 0.086
L3Q	-0.362 ± 0.17
L3T	-0.201 ± 0.072
L3G	-0.609 ± 0.058
L3R	-0.333 ± 0.044
L3D	-0.486 ± 0.092
L3Y	0.124 ± 0.075
L3K	-0.276 ± 0.1
L3V	-0.439 ± 0.062
R12H	-0.188 ± 0.12
R12D	-0.024 ± 0.097
R12T	0.023 ± 0.097
R12C	-0.056 ± 0.077
R12P	-0.102 ± 0.072
R12E	0.17 ± 0.12
R12G	0.085 ± 0.043
W40L	-0.134 ± 0.048

Variant	abundance fitness
W40Q	-0.122 ± 0.066
W40N	-0.33 ± 0.15
P6Y	-0.258 ± 0.12
P6F	-0.285 ± 0.085
P6T	-0.219 ± 0.097
P6G	-0.209 ± 0.052
P6N	-0.617 ± 0.15
G51E	-0.863 ± 0.18
G51P	-0.952 ± 0.16
G51F	-0.669 ± 0.12
G51Q	-1.03 ± 0.24
G51Y	-0.736 ± 0.16
G51L	-0.273 ± 0.057
L58N	-1.02 ± 0.46
L58E	-0.951 ± 0.18
L58A	-0.743 ± 0.085
L58R	-0.859 ± 0.061
L58F	-0.902 ± 0.14
A43W	-0.83 ± 0.15
F52M	-0.019 ± 0.061
F52K	0.048 ± 0.072
F52S	-0.059 ± 0.058
F52D	-0.431 ± 0.1
F52Q	-0.259 ± 0.071

Variant	abundance fitness
F52G	-0.491 ± 0.055
R56A	0.035 ± 0.06
R56T	0.005 ± 0.068
R56G	-0.125 ± 0.061
R56S	0.052 ± 0.043
R56L	-0.117 ± 0.037
G26N	-0.195 ± 0.15
G26M	-0.701 ± 0.11
G26R	-0.558 ± 0.07
F11N	0.039 ± 0.083
F11A	0.11 ± 0.048
F11S	0.013 ± 0.051
F11M	0.141 ± 0.053
F11T	0.069 ± 0.056
F11W	-0.075 ± 0.049
T24W	-0.25 ± 0.076
T24V	-0.041 ± 0.053
V10I	-0.021 ± 0.064
V10C	-0.037 ± 0.1
V10M	0.005 ± 0.079
V10T	-0.167 ± 0.099
V10P	-1.05 ± 0.25
